Measured values from paper PMC8800115, “The ASCC2 CUE domain in the ALKBH3–ASCC DNA repair complex recognizes adjacent ubiquitins in K63-linked polyubiquitin” (The Journal of Biological Chemistry, 2021).

Molecular target: T1, K63-linked diubiquitin (UniProt P0CG48 1-76; P0CG48 1-76, K48R | K63R | D77 extension, distal ubiquitin: C-terminal G76 in an isopeptide bond with K63 of the proximal ubiquitin | proximal ubiquitin: K63 in an isopeptide bond with G76 of the distal ubiquitin)
T1 construct: ubiquitin, residues 1 to 76, K48R/K63R; distal position of K63Ub2; ubiquitin, residues 1 to 76, with a D77 extension; proximal position of K63Ub2; Two ubiquitins joined covalently; For NMR either the distal or the proximal ubiquitin was 15N-labelled; also called K63Ub2; WT K63Ub2
Test: ITC; MicroCal iTC200; proteins dialysed in 20 mM Hepes pH 7.5, 150 mM NaCl, 200 μM TCEP; 2-μl injections; who was in the cell is not given; ranges of Kd are from fits with N fixed to 1 (first value: active concentration in the cell varied, second: in the syringe); Kd of S470R and E467R/S470R called apparent
Conditions: both partners purified

stoichiometry N: 1 ASCC2 per K63Ub2
B1: full-length ASCC2 (natural protein, human, UniProt Q9H1I8 1-757, looked up)
chain: MPALPLDQLQITHKDPKTGKLRTSPALHPEQKADRYFVLYKPPPKDNIPALVEEYLERATFVANDLDWLLALPHDKFWCQVIFDETLQKCLDSYLRYVPRKFDEGVASAPEVVDMQKRLHRSVFLTFLRMSTHKESKDHFISPSAFGEILYNNFLFDIPKILDLCVLFGKGNSPLLQKMIGNIFTQQPSYYSDLDETLPTILQVFSNILQHCGLQGDGANTTPQKLEERGRLTPSDMPLLELKDIVLYLCDTCTTLWAFLDIFPLACQTFQKHDFCYRLASFYEAAIPEMESAIKKRRLEDSKLLGDLWQRLSHSRKKLMEIFHIILNQICLLPILESSCDNIQGFIEEFLQIFSSLLQEKRFLRDYDALFPVAEDISLLQQASSVLDETRTAYILQAVESAWEGVDRRKATDAKDPSVIEEPNGEPNGVTVTAEAVSQASSHPENSEEEECMGAAAAVGPAMCGVELDSLISQVKDLLPDLGEGFILACLEYYHYDPEQVINNILEERLAPTLSQLDRNLDREMKPDPTPLLTSRHNVFQNDEFDVFSRDSVDLSRVHKGKSTRKEENTRSLLNDKRAVAAQRQRYEQYSVVVEEVPLQPGESLPYHSVYYEDEYDDTYDGNQVGANDADSDDELISRRPFTIPQVLRTKVPREGQEEDDDDEEDDADEEAPKPDHFVQDPAVLREKAEARRMAFLAKKGYRHDSSTAVAGSPRGHGQSRETTQERRKKEANKATRANHNRRTMADRKRSKGMIPS
notes: source: E. coli Rosetta (DE3), purified (HisTrap, Superdex 200)
